From patent US8691225B2, “Antibodies against the ectodomain of ErbB3 and uses thereof” (Merrimack Pharmaceuticals, Inc., priority 2007, dated 2014)

How the values were obtained:
[1] = test system: ErbB3 phosphorylation in ovarian AdrR cells; test: BTC or HRG induced ErbB3 phosphorylation in AdrR cells in vitro; assay type: cell-based, human
Method: Following pre incubation, the media are removed and the cells are stimulated for 5 minutes at 37° C., 5% CO2 with 50 nM BTC or 333 nM TGF-α. HRG controls (5 minutes, 5 nM), 10% serum and 0% serum controls are also used. Cells are washed with 1× cold PBS and lysed in 30 μl cold lysis buffer (M-PER buffer (Pierce) plus sodium vanadate (NaVO4, Sigma), 2-glycerophosphate, phenylarsine oxide, BpV and protease inhibitors) by incubating on ice for 30 minutes. Lysates are stored overnight at −80° C.

[2] = molecular target: T1, ErbB3 in AdrR xenografts (Homo sapiens, UniProt P21860); test: total ErbB3 in AdrR xenografts in vivo by ELISA; design: species or system mouse
T1 construct: host or cells: AdrR (NCI/AdrR) ovarian cancer cells
Method: Briefly, the samples were pulverized in a cryopulverizer (Covaris Inc). Tumors were stored in special bags (pre-weighed before the addition of the tumor) and placed in liquid nitrogen while handling them. For small tumors, 200 μL of Lysis buffer was first added to the bag with the tumor, frozen in liquid nitrogen and then pulverized to improve the recovery of the tumor from the bag. Pulverized tumors were transferred to 2 ml EPPENDORF tubes and placed in liquid nitrogen until lysed. Tumors were lysed in Lysis buffer supplemented with protease and phosphatase inhibitors. Lysis Buffer was added to the tumor aliquots in a final concentration of 62.5 mg/ml. Tumor samples were homogenized by vortexing for 30 seconds and letting them sit on ice for 30 min. The lysates were spun for 10 minutes in QIAGEN […] columns for further homogenization of the samples. Cleared lysates were aliquoted into fresh tubes.
The BCA assay is performed as set forth substantially as described in the materials and methods section supra.
The total levels of ErbB3 were determined by ELISA. The ELISA reagents were purchased from R&D Systems as DUOSET kits. […] Fifty microliters of SUPERSIGNAL ELISA Pico substrate was added and readout was performed on a Fusion plate reader. Data was analyzed using Microsoft EXCEL. […]

[3] = test system: renal (ACHN) xenograft; test: xenograft tumor growth in nude mice; assay type: in vivo, mouse; conditions: 600 ug Q3d versus 300 ug
[4] = molecular target: BSA (Bos taurus, UniProt P02769); test: binding specificity ELISA; design: species or system bovine; conditions: IgG2 isotype of Ab #6
Chain of BSA (P02769 25-607): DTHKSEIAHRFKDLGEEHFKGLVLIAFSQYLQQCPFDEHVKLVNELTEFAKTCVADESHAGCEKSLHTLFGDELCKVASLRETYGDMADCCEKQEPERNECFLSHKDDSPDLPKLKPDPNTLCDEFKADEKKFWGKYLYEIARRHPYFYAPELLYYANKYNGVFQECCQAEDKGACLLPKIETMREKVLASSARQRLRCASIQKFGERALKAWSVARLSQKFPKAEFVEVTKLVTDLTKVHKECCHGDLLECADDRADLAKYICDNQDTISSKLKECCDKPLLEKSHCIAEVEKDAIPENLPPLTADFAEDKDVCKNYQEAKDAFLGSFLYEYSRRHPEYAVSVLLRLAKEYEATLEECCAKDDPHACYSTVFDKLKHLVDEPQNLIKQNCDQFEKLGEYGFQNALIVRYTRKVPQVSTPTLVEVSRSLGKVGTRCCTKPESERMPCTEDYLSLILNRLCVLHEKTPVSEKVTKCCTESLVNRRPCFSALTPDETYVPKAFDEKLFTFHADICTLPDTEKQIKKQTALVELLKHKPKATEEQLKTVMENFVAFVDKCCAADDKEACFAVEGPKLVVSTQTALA
Method: 96-well NUNC MAXISORB plates are coated by overnight incubation at room temperature with 50 μl/well of 5 μg/ml of individual proteins. The proteins are recombinant human EGFR ectodomain, BSA, recombinant human ErbB3 ectodomain and TGF-α. The next morning, plates are washed 3 times with […] of PBST (0.05% Tween-20) in the BIOTEK plate washer. The wells are blocked for 1 hr at room temperature with 2% BSA in PBS and washed again as before. […] All samples are run in duplicate and incubated for 2 hrs at 4° C. on a plate shaker. The plates are washed again as before. 50 μl of human IgG-Fc detection antibody (HRP conjugated, Bethyl Laboratories, Inc; 1:75000 dilution in 2% BSA, PBST) is added and the plates are incubated for 1 hr at room temperature. The plates are washed again as before. 50 μL of SUPERSIGNAL ELISA Pico substrate is added and the plate is read on the FUSION plate reader (Packard/Perkin Elmer). The data is analyzed using the EXCEL program. Duplicate samples are averaged and the error bars represent the standard deviation between the two replicates.

[5] = test system: AdrR spheroids; test: spheroid growth assay; assay type: cell-based, human; conditions: 8 uM
Method: (§1) Subconfluent cells are trypsinized, counted, and resuspended in filtered medium. The cell concentration is adjusted to 100,000 cells/ml, and one 20 ul drop (containing 2000 cells) is added to each ring on the underside of the lid of a 96-well plate. The lids with these hanging droplets are then placed back on the original 96-well plate, which contained 100 ul of PBS in each well to maintain moisture. Four days after initial plating, the hanging droplets containing the spheroids are replated into new 96-well plates. This replating involves transferring the lid containing the hanging droplets to a fresh 1% agarose/RPMI-coated 96-well plate that contains 150 ul of medium per well. The plate and lid are then centrifuged together at 500 rpm for 1 minute to transfer the spheroid-containing drops from the lids to the wells. Plates are then further incubated at 37° C. in a humidified CO2 incubator. Spheroids are photographed in an inverted phase contrast microscope. A micrometer scale is also photographed at the same magnification to determine spheroid size. The diameter of the spheroids is determined using METAMORPH image analysis software (MDS Analytical Technologies).
(§2) The diameters of the spheroids are measured using light microscopy (10× objective) at day 1 and day 13.

[6] = test system: DU145 spheroids; test: spheroid growth assay; assay type: cell-based, human; conditions: DU145, 8 uM, 3.4 nM HRG
Method: as §1, §2

B1: Ab #6: human anti-ErbB3 antibody from Fab-phage library, CDRs SEQ ID NOs:7-12; used as IgG1 and IgG2 isotypes; in phase I trials as MM-121 (antibody, V domains shown)
VH: EVQLLESGGGLVQPGGSLRLSCAASGFTFSHYVMAWVRQAPGKGLEWVSSISSSGGWTLYADSVKGRFTISRDNSKNTLYLQMNSLRAEDTAVYYCTRGLKMATIFDYWGQGTLVTVSS
VL: QSALTQPASVSGSPGQSITISCTGTSSDVGSYNVVSWYQQHPGKAPKLIIYEVSQRPSGVSNRFSGSKSGNTASLTISGLQTEDEADYYCCSYAGSSIFVIFGGGTKVTVL
- inhibition of betacellulin-mediated phosphorylation of ErbB3 ([1]; BTC stimulation): significantly inhibited
- inhibition of heregulin-mediated phosphorylation of ErbB3 ([1]; HRG stimulation): significantly inhibited
- downregulation of ErbB3 in xenografts [2]: downregulated ErbB3
- inhibition of tumor growth [3]: further elevated
- binding in ELISA [4]: did not show any appreciable binding
- inhibition of HRG-induced spheroid growth ([5]; 3.4 nM HRG): inhibits the HRG effect
- inhibition of spheroid growth ([5]; day 1 to day 13): inhibits spheroid growth in AdrR cells
- inhibition of HRG-induced spheroid growth [6]: inhibits HRG induced spheroid growth
